Here are results for two molecules from US7740850B2, “PDGFRβ-specific antibodies” (ImClone, LLC, priority 2007, dated 2010).

One data set addresses hPDGFRβ (Homo sapiens, UniProt P09619). The data set can be described thus: Antibody affinity determination (BIAcore, surface plasmon resonance). Format: binding. As to conditions: one experiment. As to the method: Antibody affinity determination. The binding kinetics of various Fab and IgG to mPDGFRβ were measured using a BIAcore 3000 biosensor (BIACORE, Inc., Uppsala, Sweden). Briefly, mPDGFRβ was immobilized onto a sensor chip and soluble antibodies were injected at concentrations ranging from 1.5 nM to 100 nM. Sensorgrams were obtained at each concentration and were evaluated using the program, BIA Evaluation 2.0. The affinity constant, Kd, was calculated from the ratio of dissociation rate (koff)/association rate (kon) (Lu, D. et al., 2002; Zhu, Z. et al., 1998; Loizos, N. et al., 2005).
As determined by BIAcore analysis, 2C5 binds to hPDGFRβ with similar binding characteristics as 1B3 binds to mPDGFRβ. […] However, whereas 1B3 binds to murine PDGFRβ but not human PDGFRβ, 2C5 binds to both proteins. (FIG. 6).
On the technique in general: SPR reads the build-up and loss of mass on a sensor chip optically.

For data set [1], the system named is NCI-H460 lung carcinoma xenograft. Type of data set: in vivo. As to conditions: for Tumor Volume T/C %: NCI-H460 xenograft, monotherapy. As for the experimental part:
Six xenograft models, SK-OV-3, OV-CAR-8, BxPC-3, OV-CAR-5, Caki-1 and NCI-H460 (A to F, respectively) were used to examine the effects of 1B3 on xenograft tumors in athymic nude mice. Mice with established tumors (˜250-300 mm^3) were randomly grouped and treated with 1B3, normal human IgG, or saline by intraperitoneal injection twice weekly (except for BxPC-3 model where the mice were treated three times a week) at the dose indicated.
Subcutaneous xenografts of BxPC-3 (A) or 5×10^6 NCI-H460 (B) were established in female athymic (nu/nu) mice. When tumors reached ˜300-350 mm^3, mice were randomized and divided into four groups (n=12), and treated with USP saline, 40 mg/kg of 1B3, 40 mg/kg of DC101 or 40 mg/kg 1B3 plus 40 mg/kg DC101, three times a week.
(§1) Six human xenograft tumor models, including three ovarian carcinoma (SK-OV-3, OV-CAR-5 and OV-CAR-8), one pancreatic carcinoma (BxPC3), one lung carcinoma (NCI-H460), and one kidney carcinoma (Caki-1), were used to assess the antitumor activity of 1B3 in vivo. Athymic (nu/nu) mice (female, 7-8 weeks of age) were housed for 7-10 days before xenograft implantation. Each mouse was injected subcutaneously with 3-10×10^6 cells of SK-OV-3, OVCAR-5, OVCAR-8, Caki-1, BxPC3 or NCI-H460 tumor cells. When tumors reached approximately 250-300 mm^3, mice were randomized into groups of 10 to 12 animals each and treated by intraperitoneal injection, 2 to 3 times per week, with 1B3, DC101, or 1B3 in combination with DC101. Human IgG and/or USP saline were used as control groups. Tumor sizes and mouse body weight were measured twice a week. Tumor volume was calculated using the formula: π/6×(length×width^2), where length=longest diameter and width=diameter perpendicular to length. The ratio of average tumor volume in the treatment group versus that in the control group (T/C %) was calculated. Statistic analysis was performed by Student's t-test.
To study the antitumor effects of monotherapy with an anti-PDGFRβ antibody, mice were treated with 1B3, normal human IgG, or saline twice weekly by intraperitoneal injections. In SK-OV-3 model, tumor-bearing mice were given 1B3 at 6, 20, or 60 mg/kg dose.
Athymic nude mice bearing xenografted tumors of 300-350 mm^3 size were randomized and divided into four treatment groups (n=12/group), and were treated by intraperitoneal injections three times a week with saline, 1B3 (40 mg/kg), DC101 (40 mg/kg), or 1B3 (40 mg/kg) plus DC101 (40 mg/kg).
The five human xenograft tumor models described above (OVCAR-5 and OVCAR-8, BxPC3, NCI-H460, and Caki-1) were used to assess the antitumor activity of 2C5 in vivo.

The next data set has as its system human xenograft tumors. The data set can be described thus: Human tumor xenograft models in athymic nude mice (statements over several models). Type of data set: in vivo. The conditions noted are these: all six xenograft models, i.p. up to 60 mg/kg. As to the method: as §1, with “Antitumor activity of anti-mPDGFRβ antibody in tumor xenograft models. Six” for “Six”
The xenograft cell lines were BxPC-3, MIA-PaCa-2, Detroit-562, HCT-8, NCI-H460, NCI-H292, and HCT-116. […] (FIG. 10 and Table 3). […]

Chain of hPDGFRβ (P09619 33-1106): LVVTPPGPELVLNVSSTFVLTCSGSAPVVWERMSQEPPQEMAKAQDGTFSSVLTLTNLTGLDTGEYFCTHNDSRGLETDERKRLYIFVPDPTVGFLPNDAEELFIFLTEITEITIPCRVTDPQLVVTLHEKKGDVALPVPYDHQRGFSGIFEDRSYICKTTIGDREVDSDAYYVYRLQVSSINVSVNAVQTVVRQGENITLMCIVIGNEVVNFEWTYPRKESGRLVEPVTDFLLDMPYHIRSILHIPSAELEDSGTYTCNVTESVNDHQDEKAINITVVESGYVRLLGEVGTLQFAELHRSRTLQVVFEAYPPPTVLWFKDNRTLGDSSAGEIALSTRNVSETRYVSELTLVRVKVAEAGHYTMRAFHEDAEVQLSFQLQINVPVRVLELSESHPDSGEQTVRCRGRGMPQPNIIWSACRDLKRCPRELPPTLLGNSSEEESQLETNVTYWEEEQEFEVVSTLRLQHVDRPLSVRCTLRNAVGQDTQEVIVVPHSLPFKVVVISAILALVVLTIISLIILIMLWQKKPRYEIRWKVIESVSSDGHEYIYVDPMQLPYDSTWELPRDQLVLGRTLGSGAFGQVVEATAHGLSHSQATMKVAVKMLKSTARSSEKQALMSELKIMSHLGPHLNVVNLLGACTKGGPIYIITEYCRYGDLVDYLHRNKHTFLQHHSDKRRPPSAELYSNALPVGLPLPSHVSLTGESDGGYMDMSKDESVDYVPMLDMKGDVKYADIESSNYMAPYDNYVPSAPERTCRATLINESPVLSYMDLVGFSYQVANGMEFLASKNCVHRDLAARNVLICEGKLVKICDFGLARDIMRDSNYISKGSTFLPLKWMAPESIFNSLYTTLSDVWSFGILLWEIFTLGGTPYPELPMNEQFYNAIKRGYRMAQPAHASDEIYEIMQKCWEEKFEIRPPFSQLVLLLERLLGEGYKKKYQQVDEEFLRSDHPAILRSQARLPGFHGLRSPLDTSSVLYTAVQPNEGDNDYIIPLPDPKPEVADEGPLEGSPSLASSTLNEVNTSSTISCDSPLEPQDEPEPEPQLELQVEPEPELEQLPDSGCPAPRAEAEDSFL

B1: 2C5: PDGFRβ-specific human antibody binding both human and murine PDGFRβ; SEQ ID NOS in Table 1 (antibody, listed as Homo sapiens, V domains shown)
VH: QVQLVQSGAEVKKPGSSVKVSCKASGGTFSSYAISWVRQAPGQGLEWMGRIIPILGIANYAQKFQGRVTITADKSTSTAYMELSSLRSEDTAVYYCARDMGSRNYYYFYWGQGTLVTVSS
VL: EIVLTQSPATLSLSPGERATLSCRASQSVGRYLAWYQQKPGQAPRLLIYGASNRATGIPARFSGSGSGTDFTLTISSLEPEDFAVYYCQQRSNWPLTFGGGTKVEIK
For orientation: Kd means the constant that tells how readily two partners part at equilibrium. A higher Kd goes with a looser complex. Take B1: binding in the data set with hPDGFRβ was characterised by a dissociation constant (Kd) of 0.0136 nM. For the same molecule, the “Tumor Volume T/C %” value in data set [1] was found to be 60%.

B2: 1B3: human anti-mouse PDGFRβ antibody from Fab phage display library, human κ/γ1 constant regions; SEQ ID NOS in Table 1 (antibody, listed as Homo sapiens, V domains shown)
VH: QVQLQESGGGLVKPGGSLRLSCAASGFTFSSYSMNWVRQAPGKGLEWVSSISSSSSYIYYADSVKGRFTISRDNSKNTLYLQMNSLRAEDTAVYYCAKGGRPLLVFDFWGQGTLVTVS
VL: EIVMTQSPGTLSLSPGERATLSCRASQSVSSSYLAWYQQKPGQAPRLLIYDASKRATGIPARFSGSGSGTDFTLTISTLESEDSAVYYCQQRGYWPPITFGQGTRLEIKR
modifications: human kappa/gamma1 constant regions
In the data set with hPDGFRβ, B2 came in with a dissociation constant Kd of 0.0417 nM. In addition, the “overt toxicity, including changes in body weight and animal behavior” value in the data set with human xenograft tumors was “did not cause any overt toxicity”. In addition, the “T/C % on day 22 post treatment” value in data set [1] (NCI-H460, 40 mg/kg each antibody i.p. three times a week) amounted to 66%. In addition, the tumor growth inhibition result in data set [1] (NCI-H460, 60 mg/kg i.p. twice weekly) was “significantly slowed the growth”. In addition, the “Tumor Volume T/C %” value in data set [1] is 60%.
